The values that follow are results of earlier work, collected in patent US9550786B2, “4-fluoropiperidine orexin receptor antagonists” (Merck Sharp & Dohme Corp., priority 2013, dated 2017).

Ends that are not written are not given here.

One data set addresses T1, OX1R (Homo sapiens, UniProt O43613).
T1 sequence (O43613 1-425): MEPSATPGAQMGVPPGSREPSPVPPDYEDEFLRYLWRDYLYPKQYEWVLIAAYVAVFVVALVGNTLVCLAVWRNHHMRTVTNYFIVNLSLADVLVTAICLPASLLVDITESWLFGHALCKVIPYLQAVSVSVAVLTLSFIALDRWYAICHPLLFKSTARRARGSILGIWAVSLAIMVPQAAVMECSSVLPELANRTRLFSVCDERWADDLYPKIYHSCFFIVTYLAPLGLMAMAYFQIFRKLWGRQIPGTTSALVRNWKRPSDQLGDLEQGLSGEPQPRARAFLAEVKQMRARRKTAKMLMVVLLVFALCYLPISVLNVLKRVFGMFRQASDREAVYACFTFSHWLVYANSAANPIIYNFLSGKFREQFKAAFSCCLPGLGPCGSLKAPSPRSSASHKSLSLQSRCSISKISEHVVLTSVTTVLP

For the next data set, the target named is T2, OX2R (Homo sapiens, UniProt O43614).
T2 sequence (O43614 1-444): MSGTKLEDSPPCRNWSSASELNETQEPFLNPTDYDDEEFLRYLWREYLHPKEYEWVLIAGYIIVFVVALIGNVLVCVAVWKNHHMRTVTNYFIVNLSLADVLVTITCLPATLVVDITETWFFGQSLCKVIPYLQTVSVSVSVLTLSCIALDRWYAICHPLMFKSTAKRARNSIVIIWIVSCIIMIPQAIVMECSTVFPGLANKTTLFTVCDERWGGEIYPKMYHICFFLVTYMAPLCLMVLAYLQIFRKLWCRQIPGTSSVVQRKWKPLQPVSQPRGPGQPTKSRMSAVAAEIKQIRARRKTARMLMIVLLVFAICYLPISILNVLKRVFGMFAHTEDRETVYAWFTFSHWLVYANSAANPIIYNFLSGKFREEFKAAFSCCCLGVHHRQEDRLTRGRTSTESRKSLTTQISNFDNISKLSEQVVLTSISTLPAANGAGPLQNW

“orexin A (QPLPDCCRQKTCSCRLYELLHGAGNHAAGILTL; not fully specified (residue 1, C-terminus, bridges); cysteine pairing not given here; UniProt O43612 34-66, looked up) [OX-A]”: in the data set with OX1R, the “binding affinity toward OX1R” value is recorded as 20 nM.

orexin B [OX-B]: the “binding affinity toward OX2R” value with OX2R is given as 36 nM. In addition, the “binding affinity toward OX1R” value with OX1R is on record as 420 nM.
